Measurements: US20150110781A1
Where a chain is given by its changes, count along the chain named.

B1: Hu1A9-1 (antibody, V domains shown)
VH: QVQLVQSGAEVKKPGASVKVSCKASGYSFTDYIMLWVRQAPGQRLEWIGDIYPYYGSTSYNLKFKGKATLTVDTSASTAYMELSSLRSEDTAVYYCARQGGDGNYVLFDYWGQGTLVTVSS
VL: DIQMTQSPSSLSASVGDRVTITCKASQNVGTTVAWYQQKPGKAPKALIYSASYRYSGVPSRFSGSGSGTDFTLTISSLQPEDFATYYCQQYNSYPFTFGQGTKLEIKR
B2: Hu1A9-2 (antibody, V domains shown)
VH: B1 VH
VL: B1 VL with A46V
B3: Ch2G11 (antibody, V domains shown)
VH: EVQLVESGGGLVKPGGSLILSCAASGFTFSGFAMSWVRQTPEKRLEWVATISSGGTYTYSPDSVMGRFTISRDNAKNTLYLQMSSLRSEDTAMYYCARRLRRNYYSMDYWGQGTSVTVSS
VL: DVVLTQAPLSLPVNIGDQASISCKSTKSLLNSDGFTYLDWYLQKPGQSPQLLIYLVSNRFSGVPDRFSGSGSGTDFTLKISRVEAEDLGIYFCFQSNYLPFTFGSGTKLEIKR
B4: Ch1A9 (antibody, V domains shown)
VH: EIQLQQTGPELVKPGASVKISCKASGYSFTDYIMLWVKQSHGKSLEWIGDIYPYYGSTSYNLKFKGKATLTVDKSSSTAYMQLNSLTSEDSAVYYCARQGGDGNYVLFDYWGQGTTLTVSS
VL: DIVMTQSQKFMSTSVGDRVSVTCKASQNVGTTVAWYQQKPGQSPKALIYSASYRYSGVPDRFTGSGSGTDFTLTISNVQSEDLAEYFCQQYNSYPFTFGSGTKLEIKR

Tests used:
[1] = molecular target: Inactivated Rabies Virus Vaccine (Rabipur®, Chiron Behring GmbH & Co.) (rabies virus); experiment: ELISA, plate coated with 1/500-diluted Rabipur, anti-human IgG Fcγ-HRP detection
[2] = molecular target: Inactivated Rabies Virus Vaccine (Rabipur®, Chiron Behring GmbH & Co.) (rabies virus)
[3] = molecular target: CVS-11 rabies virus (rabies virus) (UniProt O92284); experiment: cell-based or functional assay
UniProt O92284, sequence (O92284 20-524): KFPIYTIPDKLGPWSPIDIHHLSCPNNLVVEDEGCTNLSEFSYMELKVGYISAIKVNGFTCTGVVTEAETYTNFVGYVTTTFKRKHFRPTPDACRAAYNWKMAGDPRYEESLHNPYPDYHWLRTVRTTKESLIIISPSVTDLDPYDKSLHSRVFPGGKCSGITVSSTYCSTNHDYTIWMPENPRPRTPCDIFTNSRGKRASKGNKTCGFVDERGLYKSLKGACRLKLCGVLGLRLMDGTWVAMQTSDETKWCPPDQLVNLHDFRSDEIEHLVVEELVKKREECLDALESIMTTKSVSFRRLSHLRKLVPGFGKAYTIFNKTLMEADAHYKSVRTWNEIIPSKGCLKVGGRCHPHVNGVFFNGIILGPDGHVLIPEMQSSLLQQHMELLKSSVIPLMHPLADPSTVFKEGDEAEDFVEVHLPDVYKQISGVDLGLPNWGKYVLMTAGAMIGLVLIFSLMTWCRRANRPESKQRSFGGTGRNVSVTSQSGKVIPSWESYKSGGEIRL

Binder	EC50 [1] [µg/mL]	IC50 [2] [µg/mL]	Neutralization potency (IU/mg), FAVN [3] [IU/mg]	Neutralization potency (IU/mg), RFFIT [3] [IU/mg]
B1	0.025			
B2	0.016			
B3		0.11	8310	1260
B4	0.052		533	1260
